Data published in the supplement of paper PMC12042874.
± gives the uncertainty stated by the source.

Experiment: amyloid nucleation score (Sup35N fusion, yeast selection) (log enrichment); library NNK1; higher = more nucleation; inactive = no reads after selection
Method in brief: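 For the nucleation score, DiMSum gave the log enrichment of output over input reads, centred on the mode score of non-aggregating sequences. Psi-negative yeast expressing Sup35N fused to peptides of 20 random codons were induced with 100 μM copper sulfate for 24 hours and grown 7 days at 30°C on medium lacking adenine and uracil. Input and output plasmid inserts were Illumina-sequenced, and sequences with under 100 input reads were excluded.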

Row | Substance | amyloid nucleation score
1 | FQATR | -0.238 ± 0.32
2 | KSGDMWW | 0.087 ± 0.37
3 | IPLVVVNPSARFRLRTKIIR | 0.908 ± 0.88
4 | YCTLRESKPPMDGSM | -0.898 ± 1.7
5 | TGSLVFLTLTLLLVCYLPIT | 0.302 ± 0.43
6 | LTLMGRSMNKYVAGSTTRAL | -0.371 ± 0.29
7 | PRIRHHSLYCVVYWFIIDRT | inactive
8 | KNNVDSKHS | 0.021 ± 0.52
9 | CCGVDAFSSRESR | 1.55 ± 0.41
10 | NSLCSP | -1.31 ± 1.9
11 | VSPDYMSYCIGVYLINLISV | 0.354 ± 0.59
12 | ALSSAALEYNIPVGSGAFVN | 0.25 ± 1.4
13 | YRLCSMSMRCGLRSIFSNRL | 0.606 ± 0.57
14 | VGLERSWGEAKAVNMQRHGS | 0.346 ± 0.81
15 | TMSFSFF | 0.855 ± 0.28
16 | AATGRTVCESREWGKVLAVC | -0.459 ± 0.38
17 | SEWGSQSSGAGSFTMV | -1.35 ± 2.4
18 | RLSNYFNLECEQIRSYYRYM | 1.85 ± 0.11
19 | KNKGCGGKAEYTLAPIEISM | 0.364 ± 0.55
20 | TFVVFFCWLGS | 5.12 ± 0.093
21 | VFYLCFTSQYYLSAGTVNAW | 4.99 ± 0.064
22 | VVIVN | 0.439 ± 0.47
23 | DQVTYRPWLRELRRQAMCLQ | 0.027 ± 1.7
24 | YNSRRCNIHFNFIGKC | 6.783 ± 0.054
25 | RGVYNDSMERMPDNCSFYNK | -0.641 ± 1.5

Row | Substance | amyloid nucleation score
26 | FCNWANLYGTWLMLCVGSGR | 0.712 ± 0.42
27 | TYRNHYCKDKAL | 0.175 ± 0.75
28 | SVYVGRGHFLQKFRRLLRFE | inactive
29 | CFEVHTHSESLL | -0.662 ± 0.72
30 | VRLNQLDNSLAVRSATNPGA | 0.524 ± 0.65
31 | TSLCMIHYVK | -0.069 ± 1.1
32 | LCRMFRIVAVGYMDQRCRT | 0.479 ± 0.49
33 | GPSLGVIFKEIWFYYG | 0.541 ± 0.3
34 | CRCSSQLRYMHGRFWFDRSV | 0.084 ± 0.62
35 | WPCPVVRFLPWKNYISGYSF | 0.392 ± 0.64
36 | GSWATVWVVKDPEVADCCGL | -1.53 ± 1.6
37 | GLNSDGLWLLSLNTRKSRAH | -0.349 ± 1.1
38 | WIVCCMWVYVLSLQL | -1.06 ± 0.4
39 | CWLGCYPSSGEQWGGWFNAI | -0.344 ± 0.7
40 | ALSSVNFFQLL | 4.45 ± 0.12
41 | SFLSSGINRSRCY | 0.154 ± 0.32
42 | LSLFCVLMY | 2.1 ± 0.27
43 | KFLRGYSCNVRSRPTRDRSV | inactive
44 | NVGSLVHAAW | -0.613 ± 1.3
45 | RVFLTSLEDRVHTLGQATNT | 1.39 ± 0.5
46 | FYCVDN | 0.547 ± 0.65
47 | RPGVGAVRSHSAGRMGGYGD | -0.057 ± 1.7
48 | SGYDDFWMTWTAKRVWHRAR | -0.436 ± 0.64
49 | NMSINI | inactive
50 | PCTLGFVSSPSDG | 0.524 ± 0.46

Row | Substance | amyloid nucleation score
51 | ASLRLSTSLCEYGYRGRYTK | -0.05 ± 0.25
52 | EGLNNSLSSYTKDWAQVVLN | -0.079 ± 0.32
53 | SSIALYFGWLGSIR | 0.294 ± 0.85
54 | FSYRWGLVFSFRDVKLL | 2.27 ± 0.11
55 | ICGQLPISMGVLSIFWWFES | 0.331 ± 0.79
56 | EGTSPHMHSIRFTLSQLPSF | 0.236 ± 1.1
57 | LNTFWKIRTNMSMGTWS | 0.79 ± 0.65
58 | NCGGRVSG | 8.076 ± 0.06
59 | RGLQNCASSTVRESGR | 0.009 ± 1
60 | ILLLVSISMVKESDQWLING | -0.519 ± 0.51
61 | GGQFHEEFSNEINEVQDCVL | -0.15 ± 0.75
62 | TGLSWVYSFRIEYVKVGFY | 0.426 ± 0.9
63 | IVMCTVGKSLMIAQKDHAWA | -0.109 ± 0.61
64 | NKIGRGVVCSRLWTCCSCFM | 8.554 ± 0.079
65 | FLNYVMDVLGGRIRDVWWFT | 0.829 ± 0.66
66 | YNVMYTFLHFAIGTAISRTW | -0.798 ± 0.76
67 | FRPMEWLTFCSVRGLLLTIP | inactive
68 | ELVLSSSWFRRNSYALCKLR | 0.716 ± 1
69 | TQSCF | 0.074 ± 0.84
70 | DSFMAENMWGLFFDKSESPA | -0.517 ± 0.95
71 | FLEFVWRALEM | -1.16 ± 0.86
72 | ILCIESLSGFPWLICIENSL | 0.135 ± 0.39
73 | NLSSTEYAFNISDGEKRHED | 0.186 ± 0.9
74 | WCCGLCVLMQLNTVMLSKGL | 5.33 ± 0.066
75 | TVIYSNYAVICMGSMSQVDT | 7.762 ± 0.059

Row | Substance | amyloid nucleation score
76 | GSVLKLYRGITHSRNERRGP | -0.171 ± 1.1
77 | NADVTCVISGLRKTYCVSDD | 0.577 ± 0.64
78 | CSWDYMVVR | -0.137 ± 0.98
79 | HQVIQGVSYSTCG | 0.107 ± 0.38
80 | FFRRDFFFYNSLGMH | 0.233 ± 1.4
81 | HANISLRSWRFRYHCREFKG | 1.47 ± 0.2
82 | SVSNTYERE | 0.879 ± 0.68
83 | FLFLTRRWEFVHMLPVSCEV | -0.817 ± 2.4
84 | YQCYSFRVNFGGCWLAQHLL | 4.64 ± 0.13
85 | FCDPVYMPSERFWNAYMCTL | 1.19 ± 0.9
86 | KLLWSPYSGCVVYNIKVKGR | 3.67 ± 0.13
87 | ELLACGIKRRVVKTGVRTAY | -0.407 ± 1.2
88 | YTYMHRNDEFALM | inactive
89 | DIRLIPCMSMVC | -1.38 ± 1.1
90 | YENHGISDLSCIFTPYKV | inactive
91 | GNVSDYVVMIGVMVSLPCLI | -0.222 ± 0.56
92 | FDFTNGRISFAFCNNSCCPY | 2.46 ± 0.34
93 | PYVSHCGIHFFGWFSWSRAS | 0.583 ± 0.46
94 | IECLLDRILDTLYVRLNFIG | 0.616 ± 0.79
95 | YDRAWMLRPTLLWLTQTVVR | 2.21 ± 0.13
96 | TRVGLVPSLGDRSDNYIVRI | 0.087 ± 0.39
97 | TYALITADI | 0.193 ± 0.18
98 | EEYNVNCTSFVGRFSRC | -0.008 ± 0.5
99 | YFGSLYERGRIIGRRVMR | 0.267 ± 0.32
100 | YLWVIATLQFEV | -0.783 ± 0.63

Row | Substance | amyloid nucleation score
101 | AWKGRLAYKWIGNMMAGLVW | 0.005 ± 0.32
102 | HNCDYNCFNRGAHRVSEVGI | inactive
103 | IFYYNRCWLTRYRVICLESI | -1.38 ± 0.51
104 | MLCFSLVYNGREGYEINLLH | -0.552 ± 0.31
105 | EVAMVYFKCVLFITSDSKQR | -0.823 ± 1.1
106 | NNRKYLGRNMAANWGAWFKR | -0.395 ± 0.36
107 | TNTFFLTILHPRFVKMGPCW | 4.55 ± 0.1
108 | LTIRQWRFITAVGDLFLWMR | 0.331 ± 0.58
109 | VWLPYIFIDTSY | inactive
110 | ITLRVLFFRGKVLFTSGIQE | 0.71 ± 1.1
111 | HLFTGNAYRGTRMGKLVGSH | 0.328 ± 0.41
112 | SLQHGYVVYVIVFLDATSNT | -0.186 ± 0.86
113 | SMSHVWL | -1.25 ± 1.5
114 | KYWLMSLLAVKPSSRDSYGQ | -0.239 ± 0.28
115 | CIGNCYGWLSDLSWWSCPSS | 0.676 ± 0.3
116 | VYLFSVLVDVSRMSNGMLTR | -0.211 ± 1.2
117 | IHIWSSCLSNYKVILGAEVL | 0.407 ± 0.28
118 | CVCLKDPANLSAIGCRGESL | -1.6 ± 2.7
119 | CSLRYVLHYRYVGLETATNT | 0.763 ± 0.5
120 | YSSNWIMLIIRVMIHFFSSR | 3.46 ± 0.17
121 | SSAVD | 0.329 ± 1.1
122 | FINRGAGPTLSRGQSRYNSA | 0.011 ± 0.3
123 | FPMWYYH | -0.366 ± 0.74
124 | MWLKSNNWRNKADDLQGKVD | 0.523 ± 0.58
125 | CQSVFRGTIHS | -0.235 ± 0.55

Row | Substance | amyloid nucleation score
126 | WKLPWALSRPVKYRYHEVGR | 0.225 ± 0.43
127 | LDYPISVIVPGTDQSLEFLP | inactive
128 | LQYWEVYSSCRMRVGYYSAD | 1.67 ± 0.13
129 | GMLISTSIMHNES | 0.164 ± 0.4
130 | GGLCTLVVAVGDSWIDRR | -0.34 ± 0.43
131 | VVDVQALSWSRGADLSSW | 1.02 ± 0.68
132 | CSQLLKLTQSAYLFFVNQDS | 0.676 ± 0.52
133 | RCELMNIEFWVKHYGSSSGF | 1.64 ± 0.18
134 | SLWIKQLRERVANFLAGFEG | inactive
135 | NFDSELFSPLMISDVREFTK | 1.62 ± 0.47
136 | ISCVDWAIKCGVVGSLVSET | 0.681 ± 0.99
137 | RTCVIVKMNSTIALYLGQKE | 2.52 ± 0.12
138 | SVYKVPVVYGINTRFYFSES | 1.18 ± 0.33
139 | HFGAYLVVM | -0.299 ± 0.35
140 | TFGSVGYI | 0.116 ± 0.45
141 | NIWVLTYCLVYLSWSNHVF | -0.709 ± 0.78
142 | LVSQVFNVQRYGGRTVPQSF | 0.364 ± 1.2
143 | TDAQWGIFYDENIYPLDVFC | 0.075 ± 0.33
144 | KFRRLQARFASMMSSTFT | 1.82 ± 0.14
145 | ISNDYGATMFNLGCYI | 1.17 ± 0.18
146 | IKLQWS | -0.323 ± 0.53
147 | KTSFSCSIRSSYVDWGLGDS | 2.66 ± 0.12
148 | DCWSITILSVNRGSLFRLTF | inactive
149 | DDNSMSDTHLL | 1.13 ± 0.25
150 | SCVQRVLSIVNSFGRRSQTR | 0.269 ± 0.43

Row | Substance | amyloid nucleation score
151 | PYKIEWLSRTHTAGSYSLQP | -0.135 ± 0.44
152 | CPMWYYCRSVLSSLAVSDCS | inactive
153 | TVNVY | 0.829 ± 0.62
154 | CNPSG | 0.819 ± 0.51
155 | AFPSVRSAFSYLVVPCTICT | 0.606 ± 0.53
156 | DDLSGRRELTLRQT | 0.618 ± 0.49
157 | GFGSMLVEVTLYSAVAVAAR | 0.852 ± 0.52
158 | YYEAGQEPVNGMCSP | 0.07 ± 1.1
159 | RNLVWDMNAFKHVFCEDIHY | 0.396 ± 0.69
160 | RDPRAMQLKSRLGMWKNQWY | 0.91 ± 0.78
161 | YHVDC | -0.13 ± 0.34
162 | RISLVPRDASPESSTKSSSI | inactive
163 | ATMSRGFKQ | 0.834 ± 0.36
164 | NSIVWSMC | 0.409 ± 0.42
165 | PFGLRYQLRIRHYTMIEELS | 1.88 ± 0.29
166 | DLFDIDLRYFLLRVFKGCP | 0.579 ± 0.46
167 | GSWNALRLRCVNVVRTGVMN | -0.496 ± 0.59
168 | MSLSAVSNMVLMKGVGMR | -0.73 ± 0.93
169 | RRWYTSHLLWGRNISAGDIL | -0.221 ± 0.44
170 | FIGPRN | -1.05 ± 1.2
171 | PSMARPAARTHVDNNRWR | -0.051 ± 0.56
